Among the targets are traf1_human TRAF1 (UniProt Q13077); vps29_human VPS29 (UniProt Q9UBQ0); itf2_human TCF4 (UniProt P15884); cep76_human CEP76 (UniProt Q8TAP6); inca1_human INCA1 (UniProt Q0VD86).

Turning to “Zinc finger protein 502 (Homo sapiens), Q8TBZ5 E243A”, in the experiment with traf1_human TRAF1, the “effect of a mutation on the interaction” value is listed as “with no effect”.
Same read-out and setting: the result for “Zinc finger protein 502 (Homo sapiens), Q8TBZ5 Q174R” reads “with no effect”.
As for “Vacuolar protein sorting-associated protein 35 (Homo sapiens) (from UniProt Q96QK1) R524W”, in the experiment with vps29_human VPS29, the “effect of a mutation on the interaction” value is given as “with no effect”.
As to “Vacuolar protein sorting-associated protein 35 (Homo sapiens) (from UniProt Q96QK1) D620N”, the “effect of a mutation on the interaction” value with vps29_human VPS29 is “with no effect”.
“Calcium-binding protein 5 (Homo sapiens), Q9NP86 T65R”: the “effect of a mutation on the interaction” value with itf2_human TCF4 is given as “disrupting interaction strength”; with cep76_human CEP76, “with no effect”; with inca1_human INCA1, “with no effect”.
Turning to “Zinc finger protein 502 (Homo sapiens), Q8TBZ5 T184A”, the “effect of a mutation on the interaction” value in the experiment with traf1_human TRAF1 was “with no effect”.
Regarding “Vacuolar protein sorting-associated protein 35 (Homo sapiens) (from UniProt Q96QK1) L227F”, the “effect of a mutation on the interaction” value with vps29_human VPS29 was “with no effect”.

Source of the values: IntAct's records for PubMed 31515488.
